Residue numbers refer to the chain shown, from its start. Names and notes keep the numbering of the source. Blank lines part the entries; values can stand above or below the binder they belong to.
Assays:
Settings in all cases: both partners purified
[1] = target: T1, human small heat shock protein HSPB1, wild type (human, UniProt P04792 1-205); assay: cross-linking; disulfide cross-linking of mixtures: 50 μM of each protein in 50 mM sodium phosphate pH 7.5, 100 mM NaCl, 5 mM DTT overnight at 37 °C, then dialysis without DTT at 20 °C for 24 h; non-reducing SDS-PAGE
T1 construct: HSPB1 (HSP27), human; six Trp); Two constructs and two purification routes were used and are said to give indistinguishable proteins; Polydisperse oligomer, on average 23 subunits by SEC-SAXS; also called HSP27; WT HSPB1; source: recombinant (pET23b or pETHSUK construct), expressed as described earlier; purified (ammonium sulfate fractionation, anion-exchange, SEC; or subtractive IMAC, …
T1 sequence (P04792 whole entry): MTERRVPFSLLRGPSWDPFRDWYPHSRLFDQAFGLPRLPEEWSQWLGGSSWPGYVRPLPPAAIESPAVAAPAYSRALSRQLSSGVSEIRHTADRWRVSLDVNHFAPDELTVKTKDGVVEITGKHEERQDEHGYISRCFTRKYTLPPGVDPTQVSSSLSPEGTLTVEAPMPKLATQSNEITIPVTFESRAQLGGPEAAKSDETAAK

[2] = target: T2, human HSPB1 R127W mutant (human, UniProt P04792 1-205, R127W); assay: as above
T2 construct: HSPB1 (HSP27), human, with the autosomal dominant Charcot-Marie-Tooth mutation R127W; Disease mutation found in patients; Probably the whole protein; SUMO carrier probably removed (subtractive IMAC); source: recombinant (pET23b or pETHSUK construct), expressed as described earlier
T2 sequence (P04792 whole entry R127W): as the sequence (P04792 whole entry) above, with R127W counted along it

[3] = target: T3, human HSPB1 S135F mutant (human, UniProt P04792 1-205, S135F); assay: as above
T3 construct: HSPB1 (HSP27), human, with the autosomal dominant Charcot-Marie-Tooth mutation S135F; Disease mutation found in patients; Probably the whole protein; SUMO carrier probably removed (subtractive IMAC); The abstract once prints R135F for this mutant; source: recombinant (pET23b or pETHSUK construct), expressed as described earlier; purified (ammonium sulfate fractionation, anion-exchange, SEC; or …)
T3 sequence (P04792 whole entry S135F): as the sequence (P04792 whole entry) above, with S135F counted along it

[4] = target: T2, human HSPB1 R127W mutant; assay: SEC; equimolar mixture, 30 μM per monomer of each sHSP in buffer S, preincubated at 4 °C for 1 hr, then Superdex 200 HR
[5] = target: T3, human HSPB1 S135F mutant; assay: as above
[6] = target: T1, human small heat shock protein HSPB1, …; assay: SEC; equimolar mixture, 30 μM per monomer of each sHSP in buffer S, preincubated at 42 °C for 1 hr, then Superdex 200 HR

binding result [1]: binds | binding result [2]: binds | binding result [3]: binds
B1: human HSPB6 C46S/E116C double mutant (natural protein, UniProt O14558 1-160, looked up)
chain: MEIPVPVQPSWLRRASAPLPGLSAPGRLFDQRFGEGLLEAELAALSPTTLAPYYLRAPSVALPVAQVPTDPGHFSVLLDVKHFSPEEIAVKVVGEHVEVHARHEERPDEHGFVARCFHRRYRLPPGVDPAAVTSALSPEGVLSIQAAPASAQAPPPAAAK
notes: HSPB6 (HSP20), human, double mutant C46S/E116C made for disulfide cross-linking

binding result [4]: binds | binding result [5]: binds | binding result [6]: binds
B2: human HSPB6, wild type (natural protein, UniProt O14558 1-160, looked up)
chain: B1 chain with S46C, C116E
notes: HSPB6 (HSP20), human small heat shock protein; also called HSP20; WT HSPB6
